# Measurements from the supplement of paper PMC6755084.
# System: F1*sub RNA substrate (template-directed ligation)
# Test: fraction ligated after 30 min (ligated reads / total reads); higher = more ligase activity; sequences stand for … in GAGACCGCAACTGAAAAGTTGT…AGTTCTGCACGTAGAAGCAAAAGGC
# Settings: 42 °C
# How it was run: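 Oligo-pool templates of ligase ribozyme variants were PCR-amplified, T7-transcribed and gel-purified. Ligated and unligated bands were gel-separated, reverse transcribed with barcoded primers, and MiSeq-sequenced; core bases were filtered at quality ≥20. Fraction ligated per variant was ligated reads over total reads.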
row,Sequence,fraction ligated
1,TATCACTTGTCGTAAACACTTGGATGGGTTG [3d2087],0.774
2,TATCACTTGTCGTAAACACTTGGATGGGTTGA [2d237],0.786
3,TATCACTTGTCGTAAACACTTGGATGGTTGA [3d2085],0.105
4,TATCACTTGTCGTAAACACTTGGTGGGTTGA [3d2083],0.119
5,TATCACTTGTCGTAAACACTTTATGGGTTGA [3d2088],0.0805
6,TATCACTTGTCGTAAACACTTTGAGGGTTGA [3d2090],0.0504
7,TATCACTTGTCGTAAACACTTTGATGGGTTA [3d2092],0.0833
8,TATCACTTGTCGTAAACACTTTGATGGGTTG [3d2093],0.682
9,TATCACTTGTCGTAAACACTTTGATGGGTTGA [2d238],0.763
10,TATCACTTGTCGTAAACACTTTGATGGTTGA [3d2091],0.0645
11,TATCACTTGTCGTAAACACTTTGGAGGGTTA [3d2099],0.101
12,TATCACTTGTCGTAAACACTTTGGAGGGTTG [3d2100],0.0384
13,TATCACTTGTCGTAAACACTTTGGAGGGTTGA [2d240],0.0926
14,TATCACTTGTCGTAAACACTTTGGAGGTTGA [3d2098],0.0433
15,TATCACTTGTCGTAAACACTTTGGATGGGTT [3d2103],0.628
16,TATCACTTGTCGTAAACACTTTGGATGGGTTA [2d242],0.77
17,TATCACTTGTCGTAAACACTTTGGATGGGTTG [2d243],0.827
18,TATCACTTGTCGTAAACACTTTGGATGGTTA [3d2101],0.169
19,TATCACTTGTCGTAAACACTTTGGATGGTTG [3d2102],0.17
20,TATCACTTGTCGTAAACACTTTGGATGGTTGA [2d241],0.295
21,TATCACTTGTCGTAAACACTTTGGGGGTTGA [3d2094],0.0881
22,TATCACTTGTCGTAAACACTTTGGTGGGTTA [3d2096],0.057
23,TATCACTTGTCGTAAACACTTTGGTGGGTTG [3d2097],0.0291

row,Sequence,fraction ligated
1,TATCACTTGTCGTAAACACTTTGGTGGGTTGA [2d239],0.0914
2,TATCACTTGTCGTAAACACTTTGGTGGTTGA [3d2095],0.0341
3,TATCACTTGTCGTAAACACTTTGTGGGTTGA [3d2089],0.0322
4,TATCACTTGTCGTAAACATTGGATGGGTTGA [3d2074],0.804
5,TATCACTTGTCGTAAACATTTGATGGGTTGA [3d2075],0.384
6,TATCACTTGTCGTAAACATTTGGAGGGTTGA [3d2077],0.0367
7,TATCACTTGTCGTAAACATTTGGATGGGTTA [3d2079],0.822
8,TATCACTTGTCGTAAACATTTGGATGGGTTG [3d2080],0.826
9,TATCACTTGTCGTAAACATTTGGATGGGTTGA [2d236],0.83
10,TATCACTTGTCGTAAACATTTGGATGGTTGA [3d2078],0.15
11,TATCACTTGTCGTAAACATTTGGTGGGTTGA [3d2076],0.0521
12,TATCACTTGTCGTAAACCTTGGATGGGTTGA [3d2067],0.783
13,TATCACTTGTCGTAAACCTTTGATGGGTTGA [3d2068],0.672
14,TATCACTTGTCGTAAACCTTTGGAGGGTTGA [3d2070],0.15
15,TATCACTTGTCGTAAACCTTTGGATGGGTTA [3d2072],0.746
16,TATCACTTGTCGTAAACCTTTGGATGGGTTG [3d2073],0.793
17,TATCACTTGTCGTAAACCTTTGGATGGGTTGA [2d235],0.785
18,TATCACTTGTCGTAAACCTTTGGATGGTTGA [3d2071],0.256
19,TATCACTTGTCGTAAACCTTTGGTGGGTTGA [3d2069],0.182
20,TATCACTTGTCGTAAACTTTGGATGGGTTGA [3d1993],0.804
21,TATCACTTGTCGTAACACTTGGATGGGTTGA [3d1996],0.773
22,TATCACTTGTCGTAACACTTTGATGGGTTGA [3d1997],0.464
23,TATCACTTGTCGTAACACTTTGGAGGGTTGA [3d1999],0.0382

row,Sequence,fraction ligated
1,TATCACTTGTCGTAACACTTTGGATGGGTTA [3d2001],0.545
2,TATCACTTGTCGTAACACTTTGGATGGGTTG [3d2002],0.806
3,TATCACTTGTCGTAACACTTTGGATGGGTTGA [2d222],0.796
4,TATCACTTGTCGTAACACTTTGGATGGTTGA [3d2000],0.0413
5,TATCACTTGTCGTAACACTTTGGTGGGTTGA [3d1998],0.0145
6,TATCACTTGTCGTAACATTTGGATGGGTTGA [3d1995],0.84
7,TATCACTTGTCGTAACCTTTGGATGGGTTGA [3d1994],0.821
8,TATCACTTGTCGTAAGAACTGGATGGGTTGA [3d2159],0.802
9,TATCACTTGTCGTAAGAACTTGATGGGTTGA [3d2160],0.788
10,TATCACTTGTCGTAAGAACTTGGAGGGTTGA [3d2162],0.0364
11,TATCACTTGTCGTAAGAACTTGGATGGGTTA [3d2164],0.404
12,TATCACTTGTCGTAAGAACTTGGATGGGTTG [3d2165],0.777
13,TATCACTTGTCGTAAGAACTTGGATGGGTTGA [2d255],0.805
14,TATCACTTGTCGTAAGAACTTGGATGGTTGA [3d2163],0.0536
15,TATCACTTGTCGTAAGAACTTGGTGGGTTGA [3d2161],0.0804
16,TATCACTTGTCGTAAGAACTTTATGGGTTGA [3d2166],0.067
17,TATCACTTGTCGTAAGAACTTTGAGGGTTGA [3d2168],0.0393
18,TATCACTTGTCGTAAGAACTTTGATGGGTTA [3d2170],0.09
19,TATCACTTGTCGTAAGAACTTTGATGGGTTG [3d2171],0.726
20,TATCACTTGTCGTAAGAACTTTGATGGGTTGA [2d256],0.79
21,TATCACTTGTCGTAAGAACTTTGATGGTTGA [3d2169],0.0458
22,TATCACTTGTCGTAAGAACTTTGGAGGGTTA [3d2177],0.075
23,TATCACTTGTCGTAAGAACTTTGGAGGGTTG [3d2178],0.0318

row,Sequence,fraction ligated
1,TATCACTTGTCGTAAGAACTTTGGAGGGTTGA [2d258],0.0583
2,TATCACTTGTCGTAAGAACTTTGGAGGTTGA [3d2176],0.0186
3,TATCACTTGTCGTAAGAACTTTGGATGGGTT [3d2181],0.219
4,TATCACTTGTCGTAAGAACTTTGGATGGGTTA [2d260],0.799
5,TATCACTTGTCGTAAGAACTTTGGATGGGTTG [2d261],0.81
6,TATCACTTGTCGTAAGAACTTTGGATGGTTA [3d2179],0.11
7,TATCACTTGTCGTAAGAACTTTGGATGGTTG [3d2180],0.0734
8,TATCACTTGTCGTAAGAACTTTGGATGGTTGA [2d259],0.139
9,TATCACTTGTCGTAAGAACTTTGGGGGTTGA [3d2172],0.0507
10,TATCACTTGTCGTAAGAACTTTGGTGGGTTA [3d2174],0.0479
11,TATCACTTGTCGTAAGAACTTTGGTGGGTTG [3d2175],0.0265
12,TATCACTTGTCGTAAGAACTTTGGTGGGTTGA [2d257],0.123
13,TATCACTTGTCGTAAGAACTTTGGTGGTTGA [3d2173],0.0396
14,TATCACTTGTCGTAAGAACTTTGTGGGTTGA [3d2167],0.0101
15,TATCACTTGTCGTAAGAATTGGATGGGTTGA [3d2152],0.785
16,TATCACTTGTCGTAAGAATTTGATGGGTTGA [3d2153],0.757
17,TATCACTTGTCGTAAGAATTTGGAGGGTTGA [3d2155],0.0724
18,TATCACTTGTCGTAAGAATTTGGATGGGTTA [3d2157],0.765
19,TATCACTTGTCGTAAGAATTTGGATGGGTTG [3d2158],0.798
20,TATCACTTGTCGTAAGAATTTGGATGGGTTGA [2d254],0.8
21,TATCACTTGTCGTAAGAATTTGGATGGTTGA [3d2156],0.208
22,TATCACTTGTCGTAAGAATTTGGTGGGTTGA [3d2154],0.135
23,TATCACTTGTCGTAAGACACGGATGGGTTGA [3d2231],0.231

row,Sequence,fraction ligated
1,TATCACTTGTCGTAAGACACTGATGGGTTGA [3d2232],0.0313
2,TATCACTTGTCGTAAGACACTGGAGGGTTGA [3d2234],0.00473
3,TATCACTTGTCGTAAGACACTGGATGGGTTA [3d2236],0.751
4,TATCACTTGTCGTAAGACACTGGATGGGTTG [3d2237],0.778
5,TATCACTTGTCGTAAGACACTGGATGGGTTGA [2d276],0.776
6,TATCACTTGTCGTAAGACACTGGATGGTTGA [3d2235],0.0538
7,TATCACTTGTCGTAAGACACTGGTGGGTTGA [3d2233],0.00438
8,TATCACTTGTCGTAAGACACTTATGGGTTGA [3d2238],0.0156
9,TATCACTTGTCGTAAGACACTTGAGGGTTGA [3d2240],0.00563
10,TATCACTTGTCGTAAGACACTTGATGGGTTA [3d2242],0.0227
11,TATCACTTGTCGTAAGACACTTGATGGGTTG [3d2243],0.239
12,TATCACTTGTCGTAAGACACTTGATGGGTTGA [2d277],0.662
13,TATCACTTGTCGTAAGACACTTGATGGTTGA [3d2241],0.0196
14,TATCACTTGTCGTAAGACACTTGGAGGGTTA [3d2249],0.0115
15,TATCACTTGTCGTAAGACACTTGGAGGGTTG [3d2250],0.00522
16,TATCACTTGTCGTAAGACACTTGGAGGGTTGA [2d279],0.0154
17,TATCACTTGTCGTAAGACACTTGGAGGTTGA [3d2248],0.00668
18,TATCACTTGTCGTAAGACACTTGGATGGGTT [3d2253],0.239
19,TATCACTTGTCGTAAGACACTTGGATGGGTTA [2d281],0.756
